Measured values taken from patent US10556007B2, “Antibody which binds Lrg1 and methods of use” (UCL Business PLC, priority 2015, dated 2020).
Entries after “also recorded” stand apart in the source; their conditions may differ.

What was measured:
[1] = system: laser-induced choroidal neovascularisation; test: Rat laser-induced choroidal neovascularisation (CNV); assay type: in vivo; settings: Long Evans rats, intravitreal at time of lasering, analysis 7 days later
Experimental: Several antibodies were tested for their ability to block CNV in the rat. In these experiments mAbs were injected intravitreally at the time of lasering, with eyes being retrieved for analysis 7 days later (FIG. 5). Long Evans rats, aged 6-8 weeks, each received 5 retinal laser burns at the same time as intravitreal delivery of […] mAb or control IgG into both eyes. Four rats were used for each mAb, so a total of 40 lesions were analysed by staining for collagen IV and the neovascular areas quantified. […] Avastin was also tested in the rat laser model (data not shown) and observed to have no effect, consistent with Avastin having low affinity for rat VEGF.

human Lrg1 = molecular target: T1, human Lrg1 (Homo sapiens, UniProt P02750); test: Anti-human Lrg1 competition ELISA against biotinylated mouse 15C4; assay type: binding; set-up: made in house; settings: competition with biotinylated mouse 15C4
T1 sequence (P02750 36-347): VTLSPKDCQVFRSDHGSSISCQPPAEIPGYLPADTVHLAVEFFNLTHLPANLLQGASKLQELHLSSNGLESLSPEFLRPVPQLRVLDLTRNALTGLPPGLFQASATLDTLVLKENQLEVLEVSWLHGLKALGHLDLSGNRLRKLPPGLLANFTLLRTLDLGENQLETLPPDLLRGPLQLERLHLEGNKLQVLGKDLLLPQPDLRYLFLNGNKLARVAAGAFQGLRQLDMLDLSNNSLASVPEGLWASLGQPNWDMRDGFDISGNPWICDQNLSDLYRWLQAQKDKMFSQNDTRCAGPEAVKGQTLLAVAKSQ
Experimental: The chimeric antibody was expressed transiently in HEK EBNA cells and stably in NS0 mouse myeloma cells, purified and tested for binding to human Lrg1 in a competition ELISA assay. A Nunc Immuno MaxiSorp 96 well flat bottom microtitre plate (Fisher, cat. no. DIS-971-030J) was pre-coated with 0.2 μg/ml hLrg1 (supplied by UCL) overnight in 0.1 N Sodium Carbonate buffer (NaHCO3) at +4° C. The following day the plate was washed 1× with PBST and blocked with 3% BSA/PBS for 1 hour at room temperature. After washing 3× with PBST, a three-fold dilution series of chimeric, mouse or control antibodies from 100 μg/ml to 0.13 μg/ml was premixed with a constant concentration of biotinylated mouse 15C4 (0.4 μg/ml, final concentration), added to the plates and incubated for 1.5 hours at room temperature. Following 3×PBST washes, the binding of the biotinylated mAb was detected with streptavidin-HRP (Sigma, cat. no. 55512) and TMB substrate (Invitrogen, cat. no. 00-2023). The reaction was stopped with 3 M HCl, absorbance read at 450 nm on a Dynex Technologies MRX TC II plate reader and the binding curves plotted.
The properties of Magacizumab were investigated. […] An anti-hLrg1 competition ELISA was carried out. […] Bound biotinylated mouse 15C4 was detected using streptavidin-peroxidase and TMB substrate. […]

[2] = system: laser-induced choroidal neovascularisation; test: Mouse model of laser-induced CNV; assay type: in vivo; settings: for lesion size: C57B6 mice, intravitreal
Experimental: The images on the left of FIG. 17A show a typical wild-type mouse retina under normal illumination (Fundus), and under fluorescence illumination, 7 days after three laser burns were administered to the retinal pigment epithelium. Fluorescence images were captured ˜60 seconds after systemic dosing with fluorescein (Early Phase FFA) and again after ˜7 minutes (Late Phase FFA). At the time of lasering, animals received intraocular injections of either control IgG (top panels) or 15C4 (lower panels). The Early Phase FFA images show the size of the lesions, and the Late Phase images show leakage of fluorescein into the retina. Lesion sizes were quantified for 15C4 at 2.5, 5 and 10 μg doses, and also Eylea at 2 and 4 μg, and the % blocking is a measure of average lesion size relative to that observed in the controls. On the far right a similar analysis was undertaken using Eylea and Magacizumab (both at 2.1 μg) alone and in combination.
Wild type C57B6 mice were anaesthetized and received intravitreal injections of various doses of either Magacizumab, Eylea, or both in combination, immediately following laser photocoagulation of the retinal pigment epithelium. After 7 days (to allow the vascular lesions to form) the mice were again anaesthetized and examined by fluorescein angiography (FFA). Early phase FFA images (taken after 90 s) show the degree of vascularization at the lesion site. Measurement of the lesion area in the early phase images permits quantification in which percentage lesion size is normalized against the IgG4 control (FIG. 18).

[3] = Analytical size exclusion chromatography; assay type: physicochemical
healthy donor T cells = test: EpiScreen T cell proliferative assay; assay type: cell-based, human; settings: 20 donor T cell samples, days 5-8
Excerpt: FIG. 21D—Summary of healthy donor T cell proliferative responses. Positive T cell responses during EpiScreen™ time course days 5-8 are shown (P). Samples inducing proliferation with SI ≥2.00 that were significant (p<0.05) were considered positive (borderline responses* SI≥1.90, p<0.05 are also shown). The frequency of positive T cell responses for proliferation are shown as a percentage at the bottom of the columns.

Molecule: Avastin: anti-VEGF antibody Bevacizumab (Avastin) [reference compound]
- blockade of angiogenesis (CNV) [1]: no effect

B1: chimeric: murine 15C4 variable regions combined with human IgG4 (S241P) heavy chain and Kappa light chain constant regions (antibody, V domains shown)
VH: QVQLQQSGDEVVRPGSSVKISCKASGYTFSGYWMNWVKQRPGQGLQWIGQIYPGDGDTNYNGKFKGKATLTADKSSSTAYMQLSTLTSEDSAIYFCARSITTVVLDYWGQGTTLTVSS
VL: DIVLTQSPVSLAVSLGQRATISCRASQSVSTSGYSFMHWYQQKPGQPPKFLIKYASNLESGVPARFSGSGSGTDFTLNIHPVEEEDTATYYCQHSWEMPLTFGAGTKLELK
- binding profile / competition for binding to human Lrg1 (human Lrg1): very similar binding profile to mouse 15C4

B2: Magacizumab: humanised 15C4 antibody comprising heavy chain variable regions VH5 and kappa light chain variable regions VK3 (antibody, V domains shown)
VH: QVQLVQSGAEVKKPGSSVKVSCKASGYTFSGYWMNWVRQAPGQGLEWIGQIYPGDGDTNYNGKFKGRVTITADKSTSTAYMELSSLRSEDTAVYYCARSITTVVLDYWGQGTTVTVSS
VL: DIVLTQSPDSLAVSLGERATISCRASQSVSTSGYSFMHWYQQKPGQPPKLLIKYASNLESGVPARFSGSGSGTDFTLTISSLQPEDFATYYCQHSWEMPLTFGQGTKLEIK
- lesion size ([2]; alone, vs IgG4 control): significant reduction in lesion size
- lesion size ([2]; in combination with Eylea, vs control): significant reduction in lesion size
- lesion formation ([2]; intraocular injection at lasering, FFA after 7 days): Dose-Dependent Inhibition of Lesion Formation; also recorded: inhibit lesion formation with similar efficacy to the VEGF blocker Eylea
- aggregation by analytical size exclusion chromatography [3]: single peak and no aggregates
- T cell proliferative response (healthy donor T cells): failed to elicit a proliferative response in any of the 20 donor T cell samples
